The record followed here is FireProtDB (doi:10.1016/j.bpc.2007.01.006).

“And” between values parts separate entries of the source, which are not always exact repeats. Equal values may be shown once.

The conditions of this series: Bos taurus, pH 2, 25 °C, Glycine-HCl 0.05 M, KCl 0.1 M, reversible: Yes, whole UniProt chain shown.
The mark [1] stands for this setting: GdnHCl, Fluorescence, transition: 3.

B1: Beta-lactoglobulin wild type, P02754 (protein)
chain: MKCLLLALALTCGAQALIVTQTMKGLDIQKVAGTWYSLAMAASDISLLDAQSAPLRVYVEELKPTPEGDLEILLQKWENGECAQKKIIAEKTKIPAVFKIDALNENKVLVLDTDYKKYLLFCMENSAEPEQSLACQCLVRTPEVDDEALEKFDKALKALPMHIRLSFNPTQLEEQCHI
In the case of B1, the denaturant m value was 4.97 kcal/mol/M and 4.1 kcal/mol/M under setting [1]; 1.62 kcal/mol/M (Urea, Absorbance); 1.06 kcal/mol/M and 1.08 kcal/mol/M and 1.1 kcal/mol/M (Urea, CD); 1.56 kcal/mol/M (Urea, Fluorescence). Besides, the “denaturant midpoint (higher = more stable)” value (“denaturant midpoint” for short) under setting [1] was 1.44 M and 3.14 M; the “denaturant midpoint” value (Urea, Absorbance) is 5.3 M; the “denaturant midpoint” value (Urea, CD) is 6 M and 6.34 M and 6.55 M; the “denaturant midpoint” value (Urea, Fluorescence) stood at 5.42 M. Moreover, the unfolding free energy runs as follows: under setting [1], 7.15 kcal/mol and 4.88 kcal/mol; (Urea, Absorbance) 8.58 kcal/mol; (Urea, CD) 6.41 kcal/mol and 6.84 kcal/mol and 7.17 kcal/mol; (Urea, Fluorescence) 8.41 kcal/mol.
